Experimental data published in article PMC9482650, “Quantitative fragmentomics allow affinity mapping of interactomes” (Nature Communications, 2022).

Legend:
Assay in all cases: holdup assay
Design in all cases: key: below the threshold = too weak to quantify, mostly under pKd 3.1 to 4
Conditions in all cases: plain residues with an end cap or a label only (N-terminal biotin on a linker: ado-ado)
GRIP1_4, Q9Y3R0 = molecular target: T1, GRIP1_4, Q9Y3R0
T1 sequence (Q9Y3R0 467-571, limits assumed, looked up): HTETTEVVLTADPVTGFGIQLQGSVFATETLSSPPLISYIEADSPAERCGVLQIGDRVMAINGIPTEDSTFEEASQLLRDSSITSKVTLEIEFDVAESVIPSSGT

SNX27, Q96L92 = molecular target: SNX27, Q96L92
LRRC7, Q96NW7 = molecular target: T2, LRRC7, Q96NW7
T2 sequence (Q96NW7 1440-1537, limits assumed, looked up): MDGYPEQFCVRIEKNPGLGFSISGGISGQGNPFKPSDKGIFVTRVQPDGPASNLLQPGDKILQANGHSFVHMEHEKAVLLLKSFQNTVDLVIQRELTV

DFNB31_2, Q9P202 = molecular target: T3, DFNB31_2, Q9P202
T3 sequence (Q9P202 274-371, limits assumed, looked up): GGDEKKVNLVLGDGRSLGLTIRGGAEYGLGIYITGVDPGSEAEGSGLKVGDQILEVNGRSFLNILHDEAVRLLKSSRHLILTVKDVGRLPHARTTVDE

MPDZ_12, O75970 = molecular target: T4, MPDZ_12, O75970
T4 sequence (O75970 1857-1958, limits assumed, looked up): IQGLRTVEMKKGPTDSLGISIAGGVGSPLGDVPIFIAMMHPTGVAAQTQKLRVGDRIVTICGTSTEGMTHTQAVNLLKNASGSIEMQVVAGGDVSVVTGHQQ

PDZD2_2, O15018 = molecular target: T5, PDZD2_2, O15018
T5 sequence (O15018 329-429, limits assumed, looked up): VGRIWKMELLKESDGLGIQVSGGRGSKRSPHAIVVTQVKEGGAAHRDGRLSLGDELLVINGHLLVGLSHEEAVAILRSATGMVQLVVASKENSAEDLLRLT

PARD3B_1, Q8TEW8 = molecular target: T6, PARD3B_1, Q8TEW8
T6 sequence (Q8TEW8 196-299, limits assumed, looked up): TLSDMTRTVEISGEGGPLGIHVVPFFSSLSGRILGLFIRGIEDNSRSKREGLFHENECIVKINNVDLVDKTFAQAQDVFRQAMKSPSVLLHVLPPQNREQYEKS

TJP2_1, Q9UDY2 = molecular target: TJP2_1, Q9UDY2
TJP2_1, Q9UDY2, sequence (Q9UDY2 24-128): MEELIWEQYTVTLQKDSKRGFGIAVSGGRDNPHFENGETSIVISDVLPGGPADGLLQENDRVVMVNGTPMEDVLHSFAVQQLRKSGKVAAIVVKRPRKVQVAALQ

DFNB31_3, Q9P202 = molecular target: T7, DFNB31_3, Q9P202
T7 sequence (Q9P202 811-907, limits assumed, looked up): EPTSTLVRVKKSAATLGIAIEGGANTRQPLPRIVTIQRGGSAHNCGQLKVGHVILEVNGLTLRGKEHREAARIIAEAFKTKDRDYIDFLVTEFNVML

NHERF2_2, Q15599 = molecular target: NHERF2_2, Q15599
NHERF2_2, Q15599, sequence (Q15599 142-238): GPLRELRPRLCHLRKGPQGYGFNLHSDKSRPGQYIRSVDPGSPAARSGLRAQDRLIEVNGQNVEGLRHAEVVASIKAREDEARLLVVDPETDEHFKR

SCRIB_1, Q14160 = molecular target: SCRIB_1, Q14160
SCRIB_1, Q14160, sequence (Q14160 718-814): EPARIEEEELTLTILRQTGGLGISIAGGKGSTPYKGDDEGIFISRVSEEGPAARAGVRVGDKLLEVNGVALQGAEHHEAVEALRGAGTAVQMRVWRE

PDZRN4_1, Q6ZMN7 = molecular target: PDZRN4_1, Q6ZMN7
PDZRN4_1, Q6ZMN7, sequence (Q6ZMN7 213-318): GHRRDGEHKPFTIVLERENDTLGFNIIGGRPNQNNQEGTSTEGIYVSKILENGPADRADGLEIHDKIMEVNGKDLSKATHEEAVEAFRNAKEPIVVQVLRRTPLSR

SCRIB_3, Q14160 = molecular target: SCRIB_3, Q14160
SCRIB_3, Q14160, sequence (Q14160 999-1103): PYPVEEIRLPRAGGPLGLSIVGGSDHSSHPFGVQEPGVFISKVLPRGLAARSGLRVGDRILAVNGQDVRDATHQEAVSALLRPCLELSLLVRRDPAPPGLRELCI

DLG3_3, Q92796 = molecular target: T8, DLG3_3, Q92796
T8 sequence (Q92796 374-475, limits assumed, looked up): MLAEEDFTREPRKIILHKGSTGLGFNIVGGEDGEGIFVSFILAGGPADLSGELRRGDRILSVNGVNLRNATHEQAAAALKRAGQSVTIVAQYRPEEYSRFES

MPP2, Q14168 = molecular target: T9, MPP2, Q14168
T9 sequence (Q14168 180-250, limits assumed, looked up): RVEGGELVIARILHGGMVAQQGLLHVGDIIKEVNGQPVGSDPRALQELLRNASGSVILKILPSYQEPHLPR

Inadl_2, Q8NI35 = molecular target: Inadl_2, Q8NI35
Inadl_2, Q8NI35, sequence (Q8NI35 238-335): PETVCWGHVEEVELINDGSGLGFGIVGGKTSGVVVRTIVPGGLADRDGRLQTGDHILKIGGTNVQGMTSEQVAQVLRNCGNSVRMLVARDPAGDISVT

DLG1_1, Q12959 = molecular target: DLG1_1, Q12959
GRIP1_5, Q9Y3R0 = molecular target: T10, GRIP1_5, Q9Y3R0
T10 sequence (Q9Y3R0 568-668, limits assumed, looked up): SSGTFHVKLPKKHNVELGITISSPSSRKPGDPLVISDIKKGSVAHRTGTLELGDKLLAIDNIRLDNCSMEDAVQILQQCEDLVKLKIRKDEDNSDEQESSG

MAST2, Q6P0Q8 = molecular target: MAST2, Q6P0Q8
MAST2, Q6P0Q8, sequence (Q6P0Q8 1099-1202): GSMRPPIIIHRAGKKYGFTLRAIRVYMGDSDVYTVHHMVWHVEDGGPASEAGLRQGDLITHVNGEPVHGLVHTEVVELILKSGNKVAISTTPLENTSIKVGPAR

LIN7B, Q9HAP6 = molecular target: T11, LIN7B, Q9HAP6
T11 sequence (Q9HAP6 88-185, limits assumed, looked up): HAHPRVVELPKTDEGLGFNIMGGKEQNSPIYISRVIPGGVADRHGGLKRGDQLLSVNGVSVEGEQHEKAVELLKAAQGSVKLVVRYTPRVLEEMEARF

GRIP2_5, Q9C0E4 = molecular target: GRIP2_5, Q9C0E4
GRIP2_5, Q9C0E4, sequence (Q9C0E4 544-642): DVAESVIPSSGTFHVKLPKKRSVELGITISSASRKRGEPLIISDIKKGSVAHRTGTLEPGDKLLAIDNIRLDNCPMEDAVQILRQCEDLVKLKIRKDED

NHERF3_4, Q5T2W1 = molecular target: T12, NHERF3_4, Q5T2W1
T12 sequence (Q5T2W1 373-468, limits assumed, looked up): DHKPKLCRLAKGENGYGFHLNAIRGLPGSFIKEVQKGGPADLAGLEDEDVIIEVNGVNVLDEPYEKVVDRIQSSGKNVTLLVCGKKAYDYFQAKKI

RAPGEF6, Q8TEU7 = molecular target: T13, RAPGEF6, Q8TEU7
T13 sequence (Q8TEU7 525-625, limits assumed, looked up): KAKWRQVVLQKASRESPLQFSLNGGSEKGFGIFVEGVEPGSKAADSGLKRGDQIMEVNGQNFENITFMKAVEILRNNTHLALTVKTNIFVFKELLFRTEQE

LNX1_3, Q8TBB1 = molecular target: LNX1_3, Q8TBB1
LNX1_3, Q8TBB1, sequence (Q8TBB1 500-596): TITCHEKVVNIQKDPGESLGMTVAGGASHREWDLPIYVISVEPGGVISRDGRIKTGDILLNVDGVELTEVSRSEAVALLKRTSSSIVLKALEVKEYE

Measured: pKd

EGGKKRESEA [APPL1, Q9UKG1]
3.54: MPDZ_12, O75970
3.75: LIN7B, Q9HAP6
3.82: SCRIB_3, Q14160
3.49: RAPGEF6, Q8TEU7
below the threshold: all other assays above

VGIERETDVL [EZH1, Q92800]
3.53: LIN7B, Q9HAP6
3.6: NHERF2_2, Q15599 | DLG1_1, Q12959
3.88: MAST2, Q6P0Q8
3.58: SCRIB_3, Q14160
3.65: PARD3B_1, Q8TEW8
below the threshold: all other assays above

GSSSKEGTSV [RRBP1, Q9P2E9]
3.51: NHERF2_2, Q15599
4.75: MAST2, Q6P0Q8
4.23: PDZRN4_1, Q6ZMN7 | SCRIB_3, Q14160
4.1: SNX27, Q96L92
4.02: DLG1_1, Q12959
3.96: DFNB31_3, Q9P202
4.82: PDZD2_2, O15018
3.71: DLG3_3, Q92796
below the threshold: all other assays above

ADRDHASDQL [CTBP1, Q13363]
3.89: NHERF2_2, Q15599
3.97: DFNB31_3, Q9P202
below the threshold: all other assays above
